Results from patent US20220119534A1 (DRAGONFLY THERAPEUTICS, published 2022).
Values joined by “and” are separate entries in the source; they are usually repeats but may differ in a detail not shown here. Identical values can stand only once.

How the values were obtained:
[1] = molecular target: T1, mFc-hNKG2D (human, UniProt P26718 73-216); assay: SPR Biacore 8K 37 C; mFc-hNKG2D captured on anti-mFc chip, TriNKET as analyte; kinetics fit
T1 construct: extracellular domain; Made in house (Dragonfly Tx); the order of tag and ECD follows the name mFc-hNKG2D; also called mFc-tagged human NKG2D; not shown: mouse Fc tag
T1 sequence (looked up): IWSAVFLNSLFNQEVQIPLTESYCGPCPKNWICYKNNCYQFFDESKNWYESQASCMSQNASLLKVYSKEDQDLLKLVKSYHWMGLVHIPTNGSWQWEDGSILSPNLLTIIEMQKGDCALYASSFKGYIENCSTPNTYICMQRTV

[2] = molecular target: T1, mFc-hNKG2D; assay: SPR Biacore 8K 37 C; mFc-hNKG2D captured on anti-mFc chip, TriNKET as analyte; steady state fit; after 0.02% H2O2 24 h
[3] = molecular target: T1, mFc-hNKG2D; assay: SPR Biacore 8K 37 C; mFc-hNKG2D captured on anti-mFc chip, TriNKET as analyte; 1:1 kinetic fit; after 4 wks 40 C in HST pH 6.0
Description: Association was monitored for 60 seconds and dissociation was monitored for 60 seconds. Surfaces were regenerated between cycles with three pulses of 10 mM glycine-HCl, pH 1.7 injected for 20 seconds at 100 μL/min. HBS-EP+ (1×) buffer was used throughout the experiment. Data were analyzed using Biacore 8K Insight evaluation software (GE Healthcare).

Kd [1]: 703 nM and 705 nM and 745 nM and 732 nM
Kd [2]: 732 nM
Kd [3]: 762 nM
koff [3]: 0.0986 s⁻¹
kon [3]: 129000 M⁻¹ s⁻¹
B1: F3'-1602 TriNKET (bispecific antibody, human IgG1, kappa)
chain: QLQLQESGPGLVKPSETLSLTCTVSGFSLTNYGLHWIRQPPGKCLEWIGVIWSGGKTDYNPSLKSRVTISKDTSKNQFSLKLSSVQAADTAVYYCAKYDYDDSLDYWGQGTLVTVSSGGGGSGGGGSGGGGSGGGGSDIQMTQSPSSLSASVGDRVTITCHASQNINFWLSWYQQKPGKAPKLLIYEASNLHTGVPSRFSGSGSGTRFTLTISSLQPEDIATYYCQQSHSYPLTFGCGTKLEIKGSDKTHTCPPCPAPELLGGPSVFLFPPKPKDTLMISRTPEVTCVVVDVSHEDPEVKFNWYVDGVEVHNAKTKPREEQYNSTYRVVSVLTVLHQDWLNGKEYKCKVSNKALPAPIEKTISKAKGQPREPRVYTLPPCRDELTKNQVSLTCLVKGFYPSDIAVEWESNGQPENNYKTTPPVLVSDGSFTLYSKLTVDKSRWQQGNVFSCSVMHEALHNHYTQKSLSLSPG
heavy: EVQLVESGGGLVKPGGSLRLSCAASGFTFSSYSMNWVRQAPGKGLEWVSSISSSSSYIYYADSVKGRFTISRDNAKNSLYLQMNSLRAEDTAVYYCARGAPIGAAAGWFDPWGQGTLVTVSSASTKGPSVFPLAPSSKSTSGGTAALGCLVKDYFPEPVTVSWNSGALTSGVHTFPAVLQSSGLYSLSSVVTVPSSSLGTQTYICNVNHKPSNTKVDKKVEPKSCDKTHTCPPCPAPELLGGPSVFLFPPKPKDTLMISRTPEVTCVVVDVSHEDPEVKFNWYVDGVEVHNAKTKPREEQYNSTYRVVSVLTVLHQDWLNGKEYKCKVSNKALPAPIEKTISKAKGQPREPQVCTLPPSRDELTENQVSLTCLVKGFYPSDIAVEWESNGQPENNYKTTPPVLDSDGSFFLYSWLTVDKSRWQQGNVFSCSVMHEALHNHYTQKSLSLSPG
light: DIQMTQSPSSVSASVGDRVTITCRASQGISSWLAWYQQKPGKAPKLLIYAASSLQSGVPSRFSGSGSGTDFTLTISSLQPEDFATYYCQQGVSFPRTFGGGTKVEIKRTVAAPSVFIFPPSDEQLKSGTASVVCLLNNFYPREAKVQWKVDNALQSGNSQESVTEQDSKDSTYSLSSTLTLSKADYEKHKVYACEVTHQGLSSPVTKSFNRGEC
notes: Trispecific F3' format: CLEC12A scFv-Fc paired with NKG2D Fab-Fc; Stressed and control samples of the stability studies are the same molecule; also called AB0237
